Residue numbers refer to the chain shown, from its start. Each block holds one molecule with its values, some of them ahead of it.
Assays:
[1] = tested on: cyBCMA; assay: Kinetics and affinity of cyBCMA/human IgG interactions by SPR (Bio-Rad Proteon XPR36); assay type: binding, cynomolgus; conditions: 37° C.
[2] = target: T1, hBCMA (human BCMA) (Homo sapiens, UniProt Q02223); assay: Kinetics and affinity of hBCMA/human IgG interactions by SPR (Bio-Rad Proteon XPR36); assay type: binding; conditions: huBCMA, 37° C.
T1 sequence (Q02223 1-184): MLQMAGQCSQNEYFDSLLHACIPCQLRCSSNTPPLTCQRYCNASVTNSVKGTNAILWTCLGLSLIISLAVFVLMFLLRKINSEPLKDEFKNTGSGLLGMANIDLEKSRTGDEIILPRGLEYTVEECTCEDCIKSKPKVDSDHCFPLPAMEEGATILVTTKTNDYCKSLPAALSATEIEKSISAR
Method: All experiments were performed on a Bio-Rad Proteon XPR36 surface Plasmon resonance biosensor (Bio-Rad, Hercules, Calif.). An array of anti-BCMA antibodies was prepared using an amine-coupling method on a Bio-Rad GLC Sensor Chip similar to that described in Abdiche, et al., Anal. Biochem. 411, 139-151 (2011). The analysis temperature for the immobilization was 25° C. and the running buffer was HBS-T+(10 mM HEPES, 150 mM NaCl, 0.05% Tween-20, pH 7.4). Channels were activated in the analyte (horizontal) direction by injecting a mixture of 1 mM ECD and 0.25 mM NHS for 3 minutes at a flow rate of 30 μL/min. IgGs were immobilized on the activated spots by injecting them in the ligand (vertical) direction at 20 μg/mL in 10 mM Acetate pH 4.5 buffer for 1.5 minutes at […]. The activated surfaces were blocked by injecting 1M ethanolamine, pH 8.5 in the analyte direction for 3 minutes at 30 μL/min.
The analysis temperature for the hBCMA binding analysis was 37° C. or 25° C. in a running buffer of HBS-T+, supplemented with 1 mg/mL BSA. A kinetic titration method was employed for the interaction analysis as described in Abdiche, et al. The hBCMA (human BCMA) analyte was injected in the analyte direction using a series of injections from low to high concentration. The concentrations used were 0.08 nM, 0.4 nM, 2 nM, 10 nM and 50 nM (a 5-membered series, with a 5-fold dilution factor and top concentration of 50 nM). The association time for a given analyte dilution was two minutes. Immediately after the 50 nM hBCMA injection, dissociation was monitored for 2 hours. Prior to the hBCMA analyte injections, buffer was injected 5 times using the same association and dissociation times at the hBCMA analyte cycles to prepare a buffer blank sensorgram for double-referencing purposes (double referencing as described in Myszka, J. Mol. Recognit. 12, 279-284 (1999).
The sensorgrams were double-referenced and fit to a 1:1 Langmuir with mass transport kinetic titration model in BIAevaluation Software version 4.1.1 (GE Lifesciences, Piscataway, N.J.). The sensorgrams and fits are shown in FIG. 1, and the kinetics and affinity parameters for various anti-BCMA antibodies of the present invention are shown in Tables 6A-6C.

kd (1/s) cyBCMA @37° C. [1]: 0.00413 s⁻¹
ka (1/Ms) huBCMA @ 37° C. [2]: 3.14e+06 M⁻¹ s⁻¹
kd (1/s) huBCMA @37° C. [2]: 0.00146 s⁻¹
B4: L3.PY/L1.PS/H3.AE: anti-BCMA antibody (antibody, V domains shown)
VH: EVQLLESGGGLVQPGGSLRLSCAASGFTFGSYAMTWVRQAPGKGLEWVSAISGSGGNTFYADSVKGRFTISRDNSKNTLYLQMNSLRAEDTAVYYCARVSPIAAEMDYWGQGTLVTVSS
VL: EIVLTQSPGTLSLSPGERATLSCRASQSVSSSYPSWYQQKPGQAPRLLIYGASSRATGIPDRFSGSGSGTDFTLTISRLEPEDFAVYYCQHYPYPPSFTFGQGTKVEIK
ka (1/Ms) cyBCMA @ 37° C. [1]: 2.46e+06 M⁻¹ s⁻¹

kd (1/s) cyBCMA @37° C. [1]: 0.000636 s⁻¹
ka (1/Ms) huBCMA @ 37° C. [2]: 1.52e+07 M⁻¹ s⁻¹
kd (1/s) huBCMA @37° C. [2]: 0.314 s⁻¹
B5: L3.PY/L1.PS/H2.QL: anti-BCMA antibody (antibody, V domains shown)
VH: B4 VH with S63Q, V64L, A104S, E105G
VL: B4 VL
ka (1/Ms) cyBCMA @ 37° C. [1]: 657000 M⁻¹ s⁻¹

kd (1/s) cyBCMA @37° C. [1]: 0.00998 s⁻¹
ka (1/Ms) huBCMA @ 37° C. [2]: 3.07e+06 M⁻¹ s⁻¹
kd (1/s) huBCMA @37° C. [2]: 0.00905 s⁻¹
B6: L3.PY/L1.PS/H3.YA: anti-BCMA antibody (antibody, V domains shown)
VH: B4 VH with A103Y, E105G
VL: B4 VL
ka (1/Ms) cyBCMA @ 37° C. [1]: 1.77e+06 M⁻¹ s⁻¹

More lines, now with the values behind:

B1: L3.PY/H3.YA: anti-BCMA antibody (antibody, V domains shown)
VH: B4 VH with A103Y, E105G
VL: B4 VL with P34L, S35A
ka (1/Ms) cyBCMA @ 37° C. [1]: 2.87e+06 M⁻¹ s⁻¹
kd (1/s) cyBCMA @37° C. [1]: 0.0054 s⁻¹
ka (1/Ms) huBCMA @ 37° C. [2]: 3.15e+06 M⁻¹ s⁻¹
kd (1/s) huBCMA @37° C. [2]: 0.00118 s⁻¹

B2: L3.PY/L1.AH/H2.DY: anti-BCMA antibody (antibody, V domains shown)
VH: B4 VH with S52D, G53Y, A104S, E105G
VL: B4 VL with S31A, S32H, P34L, S35A
ka (1/Ms) cyBCMA @ 37° C. [1]: 2.32e+06 M⁻¹ s⁻¹
kd (1/s) cyBCMA @37° C. [1]: 0.00451 s⁻¹
ka (1/Ms) huBCMA @ 37° C. [2]: 3.05e+06 M⁻¹ s⁻¹
kd (1/s) huBCMA @37° C. [2]: 0.00152 s⁻¹

B3: L3.PY/H2.HA: anti-BCMA antibody (antibody, V domains shown)
VH: B4 VH with G53H, S54A, A104S, E105G
VL: B4 VL with P34L, S35A
ka (1/Ms) cyBCMA @ 37° C. [1]: 1.99e+06 M⁻¹ s⁻¹
kd (1/s) cyBCMA @37° C. [1]: 0.00755 s⁻¹
ka (1/Ms) huBCMA @ 37° C. [2]: 2.43e+06 M⁻¹ s⁻¹
kd (1/s) huBCMA @37° C. [2]: 0.00147 s⁻¹

B7: L3.PY/H3.AE: anti-BCMA antibody (antibody, V domains shown)
VH: B4 VH
VL: B4 VL with P34L, S35A
ka (1/Ms) cyBCMA @ 37° C. [1]: 2.82e+06 M⁻¹ s⁻¹
kd (1/s) cyBCMA @37° C. [1]: 0.00504 s⁻¹
ka (1/Ms) huBCMA @ 37° C. [2]: 3.29e+06 M⁻¹ s⁻¹
kd (1/s) huBCMA @37° C. [2]: 0.00139 s⁻¹

B8: L3.PY/L1.PS/H2.DY: anti-BCMA antibody (antibody, V domains shown)
VH: B4 VH with S52D, G53Y, A104S, E105G
VL: B4 VL
ka (1/Ms) cyBCMA @ 37° C. [1]: 1.9e+06 M⁻¹ s⁻¹
kd (1/s) cyBCMA @37° C. [1]: 0.00378 s⁻¹
ka (1/Ms) huBCMA @ 37° C. [2]: 3.22e+06 M⁻¹ s⁻¹
kd (1/s) huBCMA @37° C. [2]: 0.00361 s⁻¹

B9: L3.PY/L1.PS/H2.LT: anti-BCMA antibody (antibody, V domains shown)
VH: B4 VH with G53L, S54T, A104S, E105G
VL: B4 VL
ka (1/Ms) cyBCMA @ 37° C. [1]: 2.17e+06 M⁻¹ s⁻¹
kd (1/s) cyBCMA @37° C. [1]: 0.00411 s⁻¹
ka (1/Ms) huBCMA @ 37° C. [2]: 3.4e+06 M⁻¹ s⁻¹
kd (1/s) huBCMA @37° C. [2]: 0.00465 s⁻¹

B10: L3.PY/H2.DY: anti-BCMA antibody (antibody, V domains shown)
VH: B4 VH with S52D, G53Y, A104S, E105G
VL: B4 VL with P34L, S35A
ka (1/Ms) cyBCMA @ 37° C. [1]: 2.24e+06 M⁻¹ s⁻¹
kd (1/s) cyBCMA @37° C. [1]: 0.00618 s⁻¹
ka (1/Ms) huBCMA @ 37° C. [2]: 2.6e+06 M⁻¹ s⁻¹
kd (1/s) huBCMA @37° C. [2]: 0.00138 s⁻¹

Reference: patent US11814435B2, “Therapeutic antibodies and their uses” (PFIZER INC., priority 2015, dated 2023)
